# Measured values reported in patent publication US6962971B2, “Chemokines and methods for inducing the differentiation of fibroblasts to myofibroblasts” (The Regents of the University of California, priority 2001, dated 2005).
# Several values for one entry are separate records, joined by “and”; a condition that tells them apart may be missing. Identical values can stand only once. Entries after “also recorded” stand apart in the source; their conditions may differ.
# B1: cCAF: CXC chemokine chicken Chemotactic and Angiogenic Factor, full-length, SEQ ID NO:2; purified or synthesized (protein)
# chain: LSQGRTLVKMGNELRCQCISTHSKFIHPKSIQDVKLTPSGPHCKNVEIIATLKDGREVCLDPTAPWVQLIVKALMAKAQLNSDAPL
# modifications: Gallusgallus
# notes: purified or synthesized
# Assays:
# [1] = system: primary chicken embryonic connective tissue fibroblasts; test: Fibroblast growth assay; format: cell-based
# Method: Primary chicken embryonic connective tissue fibroblasts (CEFs) were cultured as previously described in Martins-Green and Feugate (1998). Briefly, these fibroblasts were isolated from 10-day-old chicken embryo body walls, plated at 6×10^6 cells/100 mm plate and cultured for 4 days in 199 medium with 5% donor calf serum, 1% chick serum and 0.3% tryptose phosphate broth. These cultures were passaged once (secondary cultures); the cells were plated at 0.4×10^6 cells/35 mm plate in 199/tryptose phosphate broth and 2% donor calf serum.
# Secondary fibroblasts were plated at 0.4×10^6 cells/35 mm plate and cCAF was added to experimental plates. For each experiment, plating efficiency was determined by trypsinizing plates four hours after plating. Cells were counted with a Coulter particle counter to confirm even plating of cells. The media was replaced approximately every 16 hr with 1 ml of […] 199 medium containing 0.3% tryptose phosphate broth and 2% donor calf serum, and 100-1000 ng cCAF [9-90 nM] or C- or N-peptide [64-640 nM] was added to the experimental plates, whereas, control plates contained media only. On day 3, plates were trypsinized to remove all cells and cells were counted using a Coulter counter. To test for specificity, anti-cCAF rabbit serum was pre-incubated with cCAF (3 μl serum/750 ng cCAF [68 nM] or N-peptide [480 nM]) for 1 hr at room temperature before being added to cells.
# α-SMA = test: Immunoblotting for α-SMA in fibroblast extracts; format: cell-based, chicken; conditions: 750 ng/ml; versus untreated or C-peptide treated cells
# Method: Plates of fibroblasts were treated as described previously, with 750 ng/ml cCAF or 2.5 ng/ml TGFβ. To block TGFβ, or cCAF activity, anti-cCAF (3 μl) or anti-TGFβ (1 μl) antibody was pre-incubated in 1 ml media for 1 hr at room temperature before being added to cells. After 4 days of treatment, protein extracts were prepared in 1 ml 150 mM RIPA buffer containing protease inhibitors. Protein concentrations were determined using the DC protein assay kit and samples were adjusted to contain equal amounts of protein. SDS-PAGE was performed on 7.5% separating Doucet gels (Doucet and Trifaro, 1988). Protein transfer to nitrocellulose was performed using a wet-transfer apparatus (Bio-Rad) at 100V for 45 min. The membranes were blocked for 1 hr in 5% milk in TTBS and then incubated overnight at 4° C. in mouse anti-α-SMA, to a final IgG concentration of 5 μg/ml, in 1% milk in TTBS. The membranes were washed 3 times for 20 min each with TTBS, incubated in anti-mouse HRP at 1:10,000 in 1% milk for 1hr and washed as above, and the bands visualized using the ECL.
# α-SMA mRNA = test: RT-PCR for α-SMA mRNA in fibroblasts; format: cell-based, chicken
# Method: Total RNA for α-SMA was extracted using TRIzol reagent from untreated fibroblasts, fibroblasts treated with 750 ng/ml cCAF or fibroblasts treated for varying periods of time with cCAF. The RT-PCR procedure was performed using the Promega Access RT-PCR System, which is designed to finish reverse transcription (RT) and polymerase chain reaction (PCR) in one tube, and following the protocol recommended by Promega, except that 1.5 times the recommended amount of dNTP, reverse transcriptase and Tfl DNA polymerase were used to ensure strong synthesis of 18S ribosomal RNA. The reaction conditions included: 1 μg total RNA, first strand synthesis at 48° C. for 45 min, then 95° C. for 5 min to inactivate the reverse transcriptase, followed by DNA amplification at 95° C. for 45 sec, 58° C. for 60 sec, 68° C. for 90 sec for 40 cycles. Finally, 68° C. for 7 min to extent the strands. 2 μl of Quantum mRNA classic 18S primers (Ambion) were added to reaction to produce the control band. The followin primers used for the amplification of α-SMA: […]
# RT-PCR products were analyzed by electrophoresis in 1.5% agarose and the density of the bands was measured by densitometry using Glyko BandScan.
# [2] = system: Full-thickness excision wounds on the underside of the wings of 2-week-old chicks; test: Wounding experiment: closure of excision wounds; format: in vivo, chicken; conditions: 1 μg every other day
# Method: Full-thickness excision wounds (approximately 0.5×0.5 cm) were made, using a scalpel blade, on the underside of the wings of 2-week-old chicks. The left wing was treated with vehicle alone (water), and the right wing with […] cCAF [90 nM]. The wounds were photographed immediately after wounding and then covered with Biocclusive bandage. 50 μl vehicle (water) or cCAF was deposited through the bandage onto the wound using a 30-gauge needle. This procedure was repeated the next day and every other day thereafter. On days 3, 5 and 7, the bandages were removed and the wounds were photographed before replacing the bandages and applying the treatment again.
# [3] = system: granulation tissue of excision wounds; test: Histology of excision wounds (Masson Trichrome); format: in vivo, chicken; conditions: 1 μg cCAF every other day; versus vehicle
# Method: At the specified time points, chickens were euthanized with sodium pentobarbitol. The wounded wings were collected and fixed for 18 hrs in 4% paraformaldehyde and decalcified for 3 days in 5% formic acid, 2.5% formaldehyde at 4° C. The tissue was embedded in paraffin and sectioned. Sections were stained with Masson Trichrome to visualize interstitial collagen. Other sections were immunolabeled for α-SMA. Sections were deparaffinized with 3×15 min washes in Hemo-De and rehydrated in 5 min washes of ethanol (100%, 95%, 70%, 50%, 30%). After rinsing with PBS, sections were fixed in 2% paraformaldehyde 1 hr. General autofluoresence and non-specific staining were blocked by 30 min in 0.1M glycine in PBS, followed by 30 min in 1% Evans Blue in PBS to quench red blood cell autofluorescence. Sections were incubated with α-SMA antibody in 1% BSA in PBS (1:50) for 2 hr at room temperature. After 3×10 min washes in 0.1% BSA in PBS, the sections were incubated for 40 min with anti-mouse Alexa antibody in 1% BSA in PBS (1:200). They were then washed and mounted with Vectashield.
molecule,measurement,setting,value
B1,time required for the decrease in cell numbers to be detected,[1],2 to 3 days
same,effect on fibroblast growth / cell numbers,"[1]; 3 days treatment, 2% donor calf serum",suppresses fibroblast proliferation in a dose-dependent pattern
same,dose of greatest (maximum) suppression of fibroblast proliferation,"[1]; 3 days treatment, increasing doses of cCAF",750 ng/mL and 500 to 750 ng/mL
same,time of greatest suppression of proliferation,"[1]; after plating, not shown",2 days
same,suppression of fibroblast proliferation compared to untreated cells,"[1]; fibroblasts cultured in the presence of serum (2% donor calf serum), p<0.01",25%
same,fibroblast growth relative to untreated cells,[1]; of untreated cells,about 75%
same,α-SMA levels by immunoblot,α-SMA,much higher levels of α-SMA; also recorded: increased levels of α-SMA
same,time by which α-SMA mRNA drops below control levels,α-SMA mRNA; 750 ng/ml cCAF,≤ 24 h
same,time to increase in α-SMA mRNA levels,α-SMA mRNA; 750 ng/ml cCAF,≤ 1 h
same,time α-SMA mRNA levels remain elevated after treatment,α-SMA mRNA; 750 ng/ml cCAF,up to 12 hr
same,period with increasing amounts of α-SMA mRNA relative to control,"α-SMA mRNA; after initiation of treatment, normalized to 18S rRNA",1 to 12 h
same,wound closure at day 3 (days 0-3),"[2]; topical, versus vehicle (H2O) on contralateral wing",closed to a significantly greater degree than the vehicle-treated wounds
same,wound closure at day 5,[2]; versus vehicle,closure of the control wounds was still less than that of the experimental wounds
same,wound closure at day 7,[2]; versus vehicle,completely closed
same,"density of granulation tissue, days 3 and 5",[3],denser repair tissue than the control wounds; also recorded: appears more dense earlier in wound healing
same,granulation tissue at day 7,[3],minimal; also recorded: appear to be already remodeling
